Experimental data taken from PMC10352329.
One block for each substance: values may come before it.

Columns and labels:
[1] = test system: p300 BRP 4A (Homo sapiens); test: MST; settings: human octamer H2A type 1-B/E, H2B type 1-J, MST and cryo-EM sample buffers not in the material, MST 10 µM CBP30 where stated
[2] = test system: p300 BRP wild-type (Homo sapiens); test: MST; settings: human octamer H2A type 1-B/E, H2B type 1-J, MST and cryo-EM sample buffers not in the material, MST 10 µM CBP30 where stated
[3] = target: human p300BRP (residues 1048–1282), 4A-substituted mutant (R1133A, K1134A, R1137A, K1140A) (human) (UniProt Q09472); test: MST; as a2, but p300BRP incubated beforehand with 10 μM CBP30 (inhibitor of the bromodomain pocket) for at least 20 min
[4] = target: human p300BRP (residues 1048–1282), wild type (human) (UniProt Q09472); test: as above
[5] = target: human p300BRP (residues 1048–1282), 4A-substituted mutant (R1133A, K1134A, R1137A, K1140A) (human) (UniProt Q09472); test: MST; p300BRP fluorescently labeled (His tag Labeling Kit), 2-fold serial dilutions of 180-bp nucleosome; 10 mM HEPES-NaOH pH 7.4, 150 mM NaCl, 0.05% Tween-20; 25 °C; Hill equation, half-saturation concentration (K1/2)
[6] = target: human p300BRP (residues 1048–1282), wild type (human) (UniProt Q09472); test: as above
[7] = target: Histone H4 K12ac/K16ac (Homo sapiens) (UniProt P62805); settings: cited from earlier work
[8] = target: Histone H4 K8ac/K12ac (Homo sapiens) (UniProt P62805); settings: cited from earlier work
[9] = no CBP30, H3.1, H4 with K12ac/K16ac

Chain of human p300BRP (residues 1048–1282), wild type (human) (Q09472 1048-1282): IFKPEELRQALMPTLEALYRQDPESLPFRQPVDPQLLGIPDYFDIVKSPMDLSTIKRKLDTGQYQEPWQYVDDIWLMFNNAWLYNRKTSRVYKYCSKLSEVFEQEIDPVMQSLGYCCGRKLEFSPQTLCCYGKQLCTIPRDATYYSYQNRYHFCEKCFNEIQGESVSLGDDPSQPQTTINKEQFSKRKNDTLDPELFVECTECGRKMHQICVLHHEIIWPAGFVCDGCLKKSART
Chain of human p300BRP (residues 1048–1282), 4A-substituted mutant (R1133A, K1134A, R1137A, K1140A) (human) (Q09472 1048-1282 R1133A/K1134A/R1137A/K1140A): as the sequence (Q09472 1048-1282) above, with R86A, K87A, R90A, K93A counted along it

Substance: H4acNuc (180-bp, H4K12ac/K16ac)
- K half ([1]; H3.1, H4 with K12ac/K16ac): 3.5 nM
- K half [1, 9]: 1.8 nM
- K half ([2]; H3.1, H4 with K12ac/K16ac): 1.2 nM
- K half [2, 9]: 0.35 nM

- K1/2 (half-saturation concentration) after incubation with CBP30 [3]: 3.5 nM
- K1/2 (half-saturation concentration) after incubation with CBP30 [4]: 1.2 nM
- K1/2 (half-saturation concentration) [5]: 1.8 nM
- K1/2 (half-saturation concentration) [6]: 0.35 nM
Substance: 180-bp nucleosome having H4K12ac/K16ac (H4acNuc) (from UniProt P04908 1-130; P68431 1-136; P62805 1-103) (complex)

- K1/2 (half-saturation concentration) [6]: 2.2 nM
Substance: 180-bp unmodified nucleosome (from UniProt P04908 1-130; P68431 1-136; P62805 1-103) (complex)

Substance: p300/CBP bromodomain bromodomain (from UniProt Q09472)
- Kd [7]: 25 µM
- Kd [8]: 90 µM

Substance: unmodified 180-bp nucleosome
- K half ([1]; no CBP30, H3.1, H4, unmodified): 7.3 nM
- K half ([2]; no CBP30, H3.1, H4, unmodified): 2.2 nM
